Results published in patent publication US12630596B2, “Engineered lysin-human defensin protein” (priority 2018, dated 2026).

Assays:
C. difficile R20291 [1] = test: Lytic activity of LHD on R20291 in different pH conditions; format: cell-based, Clostridium difficile
Method: Prior to tests, bacterial optical density at 600 nm (OD600) was adjusted to approximately 0.8-1.0. Protein LHD was added into the cell re-suspension with the final concentration of 200 μg/ml. The drop in OD600 at 37° C. was measured once per 20 minutes for 60 min. Bacterial re-suspension with sterilized water was also set as a control. Data are present as “Mean±SD”. Experiments were repeated 3 times, and representative data were shown.
Prior to tests, bacterial optical density at 600 nm (OD600) was adjusted to approximately 0.8-1.0. Protein LHD was added into the cell re-suspension with the final concentration of 100 μg/ml. The drop in OD600 at 37° C. was measured once per 20 minutes for 60 min. Bacterial re-suspension with sterile water was also set as a control. Experiments were repeated 3 times, and representative data were shown. […]

C. difficile R20291 [2] = test: Lytic activity of LHD after incubation with mouse intestinal contents; format: in vitro ADME; details: 37° C., 1 hr
Method: Protein LHD was incubated with mouse intestinal contents at 37° C. for 15, 30 or 60 minutes, then optical drop assays were performed on C. difficile R20291 to test the lytic activity of LHD at a concentration of 100 μg/ml. Experiments were repeated 3 times, and representative data were shown.
To appreciate the stability and activity of LHD in the mouse intestine, […] was incuated with freshly prepaerd mouse intestinal contents for 15 min, 30 min and 60 min, and retrived by centrifugation. Lytic activities of LHD treated with intestinal contents were determined on strain C. difficile R20291 as described above.

C. difficile R20291 [3] = test: Optical drop assay, lytic activity on C. difficile R20291; format: cell-based, Clostridium difficile; details: strain R20291, 200 μg/ml
Method: The lytic activity of proteins LHD and LCD against C. difficile strains was determined as previously described (Wang, Euler et al. 2015). Briefly, C. difficile strains were cultured in an anaerobic chamber to mid-log phase, and the bacterial pellets were harvested by centrifugation at 3000×g for 5 min. Pellets were washed twice and re-suspended in sterilized ddH2O, and resuspensions were not buffered. Prior to tests, bacterial optical density at 600 nm (OD600) was adjusted to approximately 0.8-1.0. Proteins LHD and LCD were added into the cell re-suspension with the final concentration of 200 μg/ml. The drop in OD600 at 37° C. was measured every 10 minutes for 60 min˜90 min. Bacterial re-suspension with sterilized water was also set as a control. Three repeats were included in each test.

B1: LHD: Fusion of phage phiC2 lysin catalytic domain (LCD, 179aa), (GGGGS)3 linker and human alpha-defensin 5; SEQ ID NO:1 (protein)
chain: MKICITVGHSILKSGACTSADGVVNEYQYNKSLAPVLADTFRKEGHKVDVIICPEKQFKTKNEEKSYKIPRVNSGGYDLLIELHLNASNGQGKGSEVLYYSNKGLEYATRICDKLGTVFKNRGAKLDKRLYILNSSKPTAVLIESFFCDNKEDYDKAKKLGHEGIAKLIVEGVLNKNINGGGGSGGGGSGGGGSATCYCRTGRCATRESLSGVCEISGRLYRLCCR
lytic activity at pH (C. difficile R20291 [1]; PH of 5, R20291): partially active | lytic activity at pH (C. difficile R20291 [1]; PHs of 2, 3, and 4, R20291): lost almost all activity | lytic activity at pH (C. difficile R20291 [1]; PHs of 6 and 7, 200 μg/ml, R20291): more efficiently | lytic activity after treatment with intestinal contents (C. difficile R20291 [2]): did not affect lytic activity | lytic activity (drop in OD600) (C. difficile R20291 [3]): potent lytic activities
